From patent US20180273587A1 (AILERON THERAPEUTICS, published 2018)
Starred links: 1 amine or outer side, 2 acyl side, 3 side chain; linkers in the order of their positions; H or OH if unused. Positions of bridges follow the written chain, without caps; N, C: chain ends. Non-standard residues stand in square brackets, D forms with d. St = two pentenyl-alanine olefin side chains, each crosslinked to another residue (stitch), C=CCCCC(CCCC=C)(N[*:1])C(=O)[*:2]; R8 = C=CCCCCCC[C@@](C)(N)C(=O)O; R5 = C=CCCC[C@@](C)(N)C(=O)O; S5 = C=CCCC[C@](C)(N)C(=O)O

B1: Cross-linked peptide #6 (peptide)
peptide: IWIAQALXAIGDQFNAYYA
modifications: not fully specified; N-terminal Ac; Cit at residue 8 (column 153); $r8 at residue 9 (column 154) and $ at residue 16 (column 161), crosslinked; C-terminal NH2
B2: SEQ ID NO: 1760 (peptide)
peptide: Ac-IWIAAALR[R8]IGDAFN[S5]YYD-NH2
modifications: staple 9-16
SMILES: CC[C@H](C)[C@H](NC(C)=O)C(=O)N[C@@H](Cc1c[nH]c2ccccc12)C(=O)N[C@H](C(=O)N[C@@H](C)C(=O)N[C@@H](C)C(=O)N[C@@H](C)C(=O)N[C@@H](CC(C)C)C(=O)N[C@@H](CCCNC(=N)N)C(=O)N[C@]1(C)CCCCCCC=CCCC[C@@](C)(C(=O)N[C@@H](Cc2ccc(O)cc2)C(=O)N[C@@H](Cc2ccc(O)cc2)C(=O)N[C@@H](CC(=O)O)C(N)=O)NC(=O)[C@H](CC(N)=O)NC(=O)[C@H](Cc2ccccc2)NC(=O)[C@H](C)NC(=O)[C@H](CC(=O)O)NC(=O)CNC(=O)[C@H]([C@@H](C)CC)NC1=O)[C@@H](C)CC
B3: SEQ ID NO: 1765 (peptide)
peptide: Ac-IWIAAALR[R8]IGDAFN[S5]YYR-NH2
modifications: staple 9-16
SMILES: CC[C@H](C)[C@H](NC(C)=O)C(=O)N[C@@H](Cc1c[nH]c2ccccc12)C(=O)N[C@H](C(=O)N[C@@H](C)C(=O)N[C@@H](C)C(=O)N[C@@H](C)C(=O)N[C@@H](CC(C)C)C(=O)N[C@@H](CCCNC(=N)N)C(=O)N[C@]1(C)CCCCCCC=CCCC[C@@](C)(C(=O)N[C@@H](Cc2ccc(O)cc2)C(=O)N[C@@H](Cc2ccc(O)cc2)C(=O)N[C@@H](CCCNC(=N)N)C(N)=O)NC(=O)[C@H](CC(N)=O)NC(=O)[C@H](Cc2ccccc2)NC(=O)[C@H](C)NC(=O)[C@H](CC(=O)O)NC(=O)CNC(=O)[C@H]([C@@H](C)CC)NC1=O)[C@@H](C)CC
B4: SEQ ID NO: 1763 (peptide)
peptide: Ac-IWIAAALR[R8]IGDAFN[S5]YYS-NH2
modifications: staple 9-16
SMILES: CC[C@H](C)[C@H](NC(C)=O)C(=O)N[C@@H](Cc1c[nH]c2ccccc12)C(=O)N[C@H](C(=O)N[C@@H](C)C(=O)N[C@@H](C)C(=O)N[C@@H](C)C(=O)N[C@@H](CC(C)C)C(=O)N[C@@H](CCCNC(=N)N)C(=O)N[C@]1(C)CCCCCCC=CCCC[C@@](C)(C(=O)N[C@@H](Cc2ccc(O)cc2)C(=O)N[C@@H](Cc2ccc(O)cc2)C(=O)N[C@@H](CO)C(N)=O)NC(=O)[C@H](CC(N)=O)NC(=O)[C@H](Cc2ccccc2)NC(=O)[C@H](C)NC(=O)[C@H](CC(=O)O)NC(=O)CNC(=O)[C@H]([C@@H](C)CC)NC1=O)[C@@H](C)CC
B5: SEQ ID NO: 1764 (peptide)
peptide: Ac-IWIAAALR[R8]IGDAFN[S5]YYH-NH2
modifications: staple 9-16
SMILES: CC[C@H](C)[C@H](NC(C)=O)C(=O)N[C@@H](Cc1c[nH]c2ccccc12)C(=O)N[C@H](C(=O)N[C@@H](C)C(=O)N[C@@H](C)C(=O)N[C@@H](C)C(=O)N[C@@H](CC(C)C)C(=O)N[C@@H](CCCNC(=N)N)C(=O)N[C@]1(C)CCCCCCC=CCCC[C@@](C)(C(=O)N[C@@H](Cc2ccc(O)cc2)C(=O)N[C@@H](Cc2ccc(O)cc2)C(=O)N[C@@H](Cc2c[nH]cn2)C(N)=O)NC(=O)[C@H](CC(N)=O)NC(=O)[C@H](Cc2ccccc2)NC(=O)[C@H](C)NC(=O)[C@H](CC(=O)O)NC(=O)CNC(=O)[C@H]([C@@H](C)CC)NC1=O)[C@@H](C)CC
B6: SEQ ID NO: 1761 (peptide)
peptide: Ac-IWIAAALR[R8]IGDAFN[S5]YYE-NH2
modifications: staple 9-16
SMILES: CC[C@H](C)[C@H](NC(C)=O)C(=O)N[C@@H](Cc1c[nH]c2ccccc12)C(=O)N[C@H](C(=O)N[C@@H](C)C(=O)N[C@@H](C)C(=O)N[C@@H](C)C(=O)N[C@@H](CC(C)C)C(=O)N[C@@H](CCCNC(=N)N)C(=O)N[C@]1(C)CCCCCCC=CCCC[C@@](C)(C(=O)N[C@@H](Cc2ccc(O)cc2)C(=O)N[C@@H](Cc2ccc(O)cc2)C(=O)N[C@@H](CCC(=O)O)C(N)=O)NC(=O)[C@H](CC(N)=O)NC(=O)[C@H](Cc2ccccc2)NC(=O)[C@H](C)NC(=O)[C@H](CC(=O)O)NC(=O)CNC(=O)[C@H]([C@@H](C)CC)NC1=O)[C@@H](C)CC
B7: SEQ ID NO: 1762 (peptide)
peptide: Ac-IWIAAALR[R8]IGDAFN[S5]YYQ-NH2
modifications: staple 9-16
SMILES: CC[C@H](C)[C@H](NC(C)=O)C(=O)N[C@@H](Cc1c[nH]c2ccccc12)C(=O)N[C@H](C(=O)N[C@@H](C)C(=O)N[C@@H](C)C(=O)N[C@@H](C)C(=O)N[C@@H](CC(C)C)C(=O)N[C@@H](CCCNC(=N)N)C(=O)N[C@]1(C)CCCCCCC=CCCC[C@@](C)(C(=O)N[C@@H](Cc2ccc(O)cc2)C(=O)N[C@@H](Cc2ccc(O)cc2)C(=O)N[C@@H](CCC(N)=O)C(N)=O)NC(=O)[C@H](CC(N)=O)NC(=O)[C@H](Cc2ccccc2)NC(=O)[C@H](C)NC(=O)[C@H](CC(=O)O)NC(=O)CNC(=O)[C@H]([C@@H](C)CC)NC1=O)[C@@H](C)CC
B8: SEQ ID NO: 1766 (peptide)
peptide: Ac-IWIAAALR[R8]IGDAFN[S5]YYK-NH2
modifications: staple 9-16
SMILES: CC[C@H](C)[C@H](NC(C)=O)C(=O)N[C@@H](Cc1c[nH]c2ccccc12)C(=O)N[C@H](C(=O)N[C@@H](C)C(=O)N[C@@H](C)C(=O)N[C@@H](C)C(=O)N[C@@H](CC(C)C)C(=O)N[C@@H](CCCNC(=N)N)C(=O)N[C@]1(C)CCCCCCC=CCCC[C@@](C)(C(=O)N[C@@H](Cc2ccc(O)cc2)C(=O)N[C@@H](Cc2ccc(O)cc2)C(=O)N[C@@H](CCCCN)C(N)=O)NC(=O)[C@H](CC(N)=O)NC(=O)[C@H](Cc2ccccc2)NC(=O)[C@H](C)NC(=O)[C@H](CC(=O)O)NC(=O)CNC(=O)[C@H]([C@@H](C)CC)NC1=O)[C@@H](C)CC
B9: SEQ ID NO: 1784 (peptide)
peptide: Ac-IWIAQALR[R8]IGDEFN[St]YYA[R5]A-NH2
modifications: staple 16-20, 9-16
B10: SEQ ID NO: 1753 (peptide)
peptide: Ac-IWIAAALR[R8]IGDAFN[S5]LYA-NH2
modifications: staple 9-16
SMILES: CC[C@H](C)[C@H](NC(C)=O)C(=O)N[C@@H](Cc1c[nH]c2ccccc12)C(=O)N[C@H](C(=O)N[C@@H](C)C(=O)N[C@@H](C)C(=O)N[C@@H](C)C(=O)N[C@@H](CC(C)C)C(=O)N[C@@H](CCCNC(=N)N)C(=O)N[C@]1(C)CCCCCCC=CCCC[C@@](C)(C(=O)N[C@@H](CC(C)C)C(=O)N[C@@H](Cc2ccc(O)cc2)C(=O)N[C@@H](C)C(N)=O)NC(=O)[C@H](CC(N)=O)NC(=O)[C@H](Cc2ccccc2)NC(=O)[C@H](C)NC(=O)[C@H](CC(=O)O)NC(=O)CNC(=O)[C@H]([C@@H](C)CC)NC1=O)[C@@H](C)CC

target: T1, BCL-XL (UniProt Q07817 1-209); assay: Ki (Table 6); method not stated
T1 construct: Target of the Ki columns
T1 sequence (Q07817 1-209): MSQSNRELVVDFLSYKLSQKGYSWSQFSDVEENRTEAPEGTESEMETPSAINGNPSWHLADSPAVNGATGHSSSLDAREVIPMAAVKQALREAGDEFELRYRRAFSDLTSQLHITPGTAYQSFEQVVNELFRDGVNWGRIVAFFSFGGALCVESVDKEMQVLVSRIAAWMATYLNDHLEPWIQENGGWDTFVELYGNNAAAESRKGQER

| Ki | Binder |
| --- | --- |
| 28.8 nM | B1 |

target: T2, BCL-2 (UniProt P10415 1-217, limits assumed); assay: Ki (Table 6); method not stated
T2 construct: Target of the Ki columns
T2 sequence (P10415 1-217 limits assumed): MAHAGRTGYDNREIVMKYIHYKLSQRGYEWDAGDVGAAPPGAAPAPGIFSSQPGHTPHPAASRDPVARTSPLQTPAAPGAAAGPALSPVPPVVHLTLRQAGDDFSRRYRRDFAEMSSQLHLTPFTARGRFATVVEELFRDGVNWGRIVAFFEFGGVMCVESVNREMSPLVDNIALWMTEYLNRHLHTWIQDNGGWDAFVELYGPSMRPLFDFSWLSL

| Ki | Binder |
| --- | --- |
| 88.2 nM | B1 |

target: T3, MCL-1 (UniProt Q07820 172-327, limits assumed); assay: Ki; method not stated; unit not printed (nM per Table 6)
T3 construct: Target of the Ki columns; also called Myeloid cell leukemia 1
T3 sequence (Q07820 172-327 limits assumed): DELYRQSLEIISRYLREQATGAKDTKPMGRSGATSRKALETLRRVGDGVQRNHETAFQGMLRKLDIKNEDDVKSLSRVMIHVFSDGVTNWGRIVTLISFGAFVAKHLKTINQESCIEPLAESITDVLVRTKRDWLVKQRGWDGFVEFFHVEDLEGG

| Ki | Binder |
| --- | --- |
| 2.2 nM | B2 |
| 18.5 nM | B3 |
| 4.7 nM | B4 |
| 10.6 nM | B5 |
| 1.4 nM | B6 |
| 4.6 nM | B7 |
| 6.6 nM | B8 |
| 11.6 nM | B9 |
| 17.6 nM | B10 |

target: T1, BCL-XL; assay: as above

| Ki | Binder |
| --- | --- |
| 116 nM | B2 |
| 186 nM | B3 |
| 36 nM | B4 |
| 73.8 nM | B5 |
| 45.4 nM | B6 |
| 41.1 nM | B7 |
| 66.3 nM | B8 |
| 24.2 nM | B9 |
| 69.9 nM | B10 |

target: T2, BCL-2; assay: as above

| Ki | Binder |
| --- | --- |
| 138 nM | B2 |
| 142 nM | B3 |
| 62.4 nM | B4 |
| 98.8 nM | B5 |
| 56.4 nM | B6 |
| 64.7 nM | B7 |
| 43.4 nM | B8 |
| 57.7 nM | B9 |
| 125 nM | B10 |
